Here are results for 1 molecule from US6610535B1, “Progenitor cells and methods and uses related thereto” (ES Cell International Pte Ltd., priority 2000, dated 2003).

Entries after “also recorded” stand apart in the source; their conditions may differ.

Test [1] relates to pancreatic duct epithelial cells. Briefly: PNA-FITC lectin histochemistry of pancreas. Format: binding, rat. As for the experimental part: Paraffin sections of adult human pancreas, adult rat pancreas, embryonic rat pancreas, or cryosections of adult mouse pancreas were used. Alternatively, Time 0 duct or cultured duct preparations from 2 week old rat pancreas were examined, with or without paraformaldehyde fixation. PNA-FITC was used usually at 1:250 dilution in PBS or DMEM/HEPES medium and incubated for 1 hr to overnight at 4° C., then washed and mounted under VectaShield mounting medium containing DAPI. Cells stained without prior fixation were post-fixed before addition of mounting medium.

In a further test the test system is T0 duct prep. The test is described as follows: PNA-FITC FACS of dispersed duct cells. The class given is binding, rat. The following applies: by FACS analysis. The procedure:
PNA-FITC was diluted 1:250 in sterile wash buffer (Ca++ Mg++-free PBS containing 1% FBS). Dispersed live cells (approx. 2×10^6 cells) were spun down and resuspended in 100 μl of lectin and incubated for 30-45 min at 4° C. Cells were then washed twice with sterile wash buffer, resuspended in 2 ml of Iscoveís modified DMEM containing 5% FBS, Pen/Strep, 1 mM glutamine, and held on ice until run on the FACSVantage. Standard FACS procedures were used.
A general note: In flow cytometry, cells or beads pass a laser one at a time.

B1: PNA: plant lectin that binds to galactosyl (β-1,3) N-acetyl galactosamine (protein, UniProt P02872 24-273, looked up)
Galactose-binding lectin: AETVSFNFNSFSEGNPAINFQGDVTVLSNGNIQLTNLNKVNSVGRVLYAMPVRIWSSATGNVASFLTSFSFEMKDIKDYDPADGIIFFIAPEDTQIPAGSIGGGTLGVSDTKGAGHFVGVEFDTYSNSEYNDPPTDHVGIDVNSVDSVKTVPWNSVSGAVVKVTVIYDSSTKTLSVAVTNDNGDITTIAQVVDLKAKLPERVKFGFSASGSLGGRQIHLIRSWSFTSTLITTTRRSIDNNEKKIMNMASA
Take B1: in test [1], the “labelling of the major pancreatic duct (common bile duct, CBD)” value is “does not mark”. For the same molecule, the “labelling of blood vessels or stromal cells” value in test [1] (by immunohistochemistry) is “does not mark”. In test [1] (rat), the “labelling of islet cells” value is on record as “did NOT label; also recorded: does NOT mark”. For the same molecule, the “labelling of duct epithelial cells” value in test [1] (rat pancreas) is “DID label; also recorded: marks the single layer of epithelial cells”. The “PNA-positive fraction of T0 duct prep” value in the test on T0 duct prep is 5-15%.
